According to patent US20160264960A1 (Chugai, published 2016):

Assays:
[1] = biological target: T1, mouse IgA (mouse, UniProt P01878 114-344); test: biolayer interferometry (Octet RED384), antibody on Protein G biosensor, mouse IgA in solution; antigen concentration not given [c]
T1 sequence (looked up): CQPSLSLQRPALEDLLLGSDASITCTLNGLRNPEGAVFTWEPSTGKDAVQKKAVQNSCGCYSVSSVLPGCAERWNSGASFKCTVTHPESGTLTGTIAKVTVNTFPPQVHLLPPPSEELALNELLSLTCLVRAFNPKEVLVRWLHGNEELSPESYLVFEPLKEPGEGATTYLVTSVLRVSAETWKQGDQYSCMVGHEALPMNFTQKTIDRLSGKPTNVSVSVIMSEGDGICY
Experimental: (§1) Each antibody (mIANH-2_27 and mIANH-3_79) obtained in the paragraph (4-1) or a PF1 antibody was evaluated for its binding activity against mouse IgA or soluble human IL-6R using Octet RED384 (forteBIO). The binding evaluation was conducted using HBS-EP+Buffer (GE Healthcare Japan Corp.) as a buffer.
(§2) After binding of the antibody to Protein G Biosensors (forteBIO), mouse IgA or soluble human IL-6R was allowed to interact with the antibody on the biosensor through contact therebetween for 120 seconds, and subsequently contacted with the buffer for 120 seconds to measure the antibody-antigen interaction. Then, the biosensor was regenerated through contact with 10 mmol/L glycine-HCl (pH 1.5). The measurement was conducted at 30° C.

[2] = biological target: T2, soluble human IL-6R (human, UniProt P08887 20-357); test: biolayer interferometry (Octet RED384), antibody on Protein G biosensor, soluble human IL-6R in solution, 120 s association and 120 s dissociation [d]
T2 construct: Analyte in the Octet experiments; also called hIL-6R; soluble hIL-6R
T2 sequence: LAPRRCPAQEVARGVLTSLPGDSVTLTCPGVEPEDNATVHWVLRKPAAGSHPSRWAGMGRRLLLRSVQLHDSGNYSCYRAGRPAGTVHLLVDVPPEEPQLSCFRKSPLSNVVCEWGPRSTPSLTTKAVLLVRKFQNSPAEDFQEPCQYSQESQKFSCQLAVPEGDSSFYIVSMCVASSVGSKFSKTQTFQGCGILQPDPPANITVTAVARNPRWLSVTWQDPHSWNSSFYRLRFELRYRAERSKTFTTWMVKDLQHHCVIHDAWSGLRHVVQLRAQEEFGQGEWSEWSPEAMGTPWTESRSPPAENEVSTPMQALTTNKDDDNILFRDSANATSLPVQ
Experimental: (§3) Each antibody (PANH-2_52, PANH-2_68, and PANH-3_10) obtained in the paragraph (4-1) or an anti-human IL-6R antibody PF1 antibody was evaluated for its binding activity against soluble human plexin A1 and soluble human IL-6R using Octet RED384 (forteBIO). The binding evaluation was conducted using HBS-EP+Buffer (GE Healthcare Japan Corp.) as a buffer.
as §2, with “soluble human plexin A1” for “mouse IgA”

[3] = biological target: T3, soluble human plexin A1 (human, UniProt Q9UIW2 27-1244); test: biolayer interferometry (Octet RED384), antibody on Protein G biosensor, soluble human plexin A1 in solution; antigen concentration not given [d]
T3 construct: also called hPlexin A1; human Plexin A1 extracellular region
T3 sequence (Q9UIW2 other isoform, or with tags, fused parts or gaps): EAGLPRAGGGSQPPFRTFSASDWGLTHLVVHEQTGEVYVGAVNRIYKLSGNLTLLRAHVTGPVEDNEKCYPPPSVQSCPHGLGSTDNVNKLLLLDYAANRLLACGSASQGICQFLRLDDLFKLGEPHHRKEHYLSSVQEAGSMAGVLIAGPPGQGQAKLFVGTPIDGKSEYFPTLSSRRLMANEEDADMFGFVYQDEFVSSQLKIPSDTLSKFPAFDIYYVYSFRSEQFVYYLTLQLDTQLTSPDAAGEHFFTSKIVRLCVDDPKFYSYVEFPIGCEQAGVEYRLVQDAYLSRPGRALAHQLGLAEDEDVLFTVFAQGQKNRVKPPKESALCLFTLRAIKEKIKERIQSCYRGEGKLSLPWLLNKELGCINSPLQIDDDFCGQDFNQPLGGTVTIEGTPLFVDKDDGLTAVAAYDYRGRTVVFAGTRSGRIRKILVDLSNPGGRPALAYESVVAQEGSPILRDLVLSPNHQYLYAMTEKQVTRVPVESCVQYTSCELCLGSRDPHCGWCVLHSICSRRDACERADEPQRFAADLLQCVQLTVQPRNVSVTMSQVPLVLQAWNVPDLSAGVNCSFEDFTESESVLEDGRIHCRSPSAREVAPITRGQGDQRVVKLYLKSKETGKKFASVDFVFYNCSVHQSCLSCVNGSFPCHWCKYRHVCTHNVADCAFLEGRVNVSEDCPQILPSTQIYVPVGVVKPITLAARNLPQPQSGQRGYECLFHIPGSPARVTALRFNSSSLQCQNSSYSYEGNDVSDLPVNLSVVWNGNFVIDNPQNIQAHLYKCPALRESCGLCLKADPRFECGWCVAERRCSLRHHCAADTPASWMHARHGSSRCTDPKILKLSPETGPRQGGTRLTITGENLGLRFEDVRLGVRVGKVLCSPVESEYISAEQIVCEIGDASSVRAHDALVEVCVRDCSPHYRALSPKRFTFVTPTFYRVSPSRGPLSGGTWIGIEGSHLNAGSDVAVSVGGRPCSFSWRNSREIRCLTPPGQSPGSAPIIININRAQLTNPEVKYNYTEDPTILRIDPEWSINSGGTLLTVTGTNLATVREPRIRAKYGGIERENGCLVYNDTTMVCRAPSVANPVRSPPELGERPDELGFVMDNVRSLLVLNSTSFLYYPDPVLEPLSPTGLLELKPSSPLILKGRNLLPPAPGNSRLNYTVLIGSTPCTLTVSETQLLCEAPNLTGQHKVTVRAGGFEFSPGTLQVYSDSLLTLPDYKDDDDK
Experimental: as §3
as §2, with “soluble human plexin A1” for “mouse IgA”

[4] = biological target: T2, soluble human IL-6R; test: biolayer interferometry (Octet RED384), antibody on Protein G biosensor, soluble human IL-6R in solution; antigen concentration not given [b]
Experimental: as §1, §2

[5] = biological target: T3, soluble human plexin A1; test: biolayer interferometry (Octet RED384), antibody on Protein G biosensor, soluble human plexin A1 in solution, 120 s association and 120 s dissociation [a]
Experimental: as §3
as §2, with “soluble human plexin A1” for “mouse IgA”

[6] = biological target: T2, soluble human IL-6R; test: biolayer interferometry (Octet RED384), antibody on Protein G biosensor, soluble human IL-6R in solution; antigen concentration not given [a]
Experimental: as §3
as §2, with “soluble human plexin A1” for “mouse IgA”

[7] = biological target: T2, soluble human IL-6R; test: as above; remark: listed apart in the source
Experimental: as §1, §2

[8] = biological target: T3, soluble human plexin A1; test: biolayer interferometry (Octet RED384), antibody on Protein G biosensor, soluble human plexin A1 in solution, 120 s association and 120 s dissociation [c]
Experimental: as §3
as §2, with “soluble human plexin A1” for “mouse IgA”

[9] = biological target: T2, soluble human IL-6R; test: biolayer interferometry (Octet RED384), antibody on Protein G biosensor, soluble human IL-6R in solution; antigen concentration not given [c]
Experimental: as §3
as §2, with “soluble human plexin A1” for “mouse IgA”

[10] = biological target: T2, soluble human IL-6R; test: biolayer interferometry (Octet RED384), antibody on Protein G biosensor, soluble human IL-6R in solution; antigen concentration not given [b]; remark: listed apart in the source
Experimental: as §3
as §2, with “soluble human plexin A1” for “mouse IgA”

[11] = biological target: T3, soluble human plexin A1; test: biolayer interferometry (Octet RED384), antibody on Protein G biosensor, soluble human plexin A1 in solution, 120 s association and 120 s dissociation [b]
Experimental: as §3
as §2, with “soluble human plexin A1” for “mouse IgA”

[12] = biological target: T4, human plexin A1 protein sema domain (from glutamic acid at position 28 to serine at position 514) tagged at … (human, UniProt Q9UIW2 28-514); test: SPR, Biacore T200; KD against parent antibody hPANLB2-3_342
T4 construct: also called human plexin A1 sema domain
T4 sequence: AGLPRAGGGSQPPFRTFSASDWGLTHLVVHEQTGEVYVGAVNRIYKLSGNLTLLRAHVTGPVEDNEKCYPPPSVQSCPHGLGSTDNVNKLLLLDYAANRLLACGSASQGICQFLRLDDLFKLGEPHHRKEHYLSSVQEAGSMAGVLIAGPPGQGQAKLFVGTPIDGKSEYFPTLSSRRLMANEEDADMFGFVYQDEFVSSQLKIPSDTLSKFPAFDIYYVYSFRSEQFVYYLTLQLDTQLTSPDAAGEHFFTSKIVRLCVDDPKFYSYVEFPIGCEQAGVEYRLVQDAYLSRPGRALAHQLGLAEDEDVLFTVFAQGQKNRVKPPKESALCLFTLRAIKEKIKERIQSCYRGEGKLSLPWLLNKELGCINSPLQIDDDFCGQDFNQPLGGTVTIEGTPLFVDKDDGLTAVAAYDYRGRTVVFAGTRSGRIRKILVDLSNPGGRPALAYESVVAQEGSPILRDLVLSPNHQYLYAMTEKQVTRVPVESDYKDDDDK
Experimental: (§4) Each antibody obtained in the paragraph (10-1) was evaluated for its binding activity against the antigen by surface plasmon resonance (SPR) analysis.
(§5) In the SPR analysis, the antibody was analyzed using Biacore T200 (GE Healthcare Japan Corp.). The anti-human plexin A1 antibody was immobilized onto the surface of Sensor Chip CM4 using Recombinant Protein A/G (Thermo Fisher Scientific Inc.) and Amine Coupling Kit (GE Healthcare Japan Corp.). The antigen used was a human plexin A1 protein sema domain (from glutamic acid at position 28 to serine at position 514) tagged at the C terminus of the protein with FLAG tag. The antigen was prepared as follows: an expression vector carrying a cDNA corresponding to the human plexin A1 sema domain was transferred to FreeStyle 293 cells. After culture, the obtained culture solution was passed through an anti-FLAG-M2 antibody-immobilized affinity column. A fraction eluted with the FALG peptide was purified by gel filtration. The obtained antigen was serially diluted with 20 mM ACES, 150 mM NaCl, 0.05% polysorbate 20, and 1.2 mM CaCl₂ (pH 7.4) and added to the sensor chip at a flow rate of 30 μL/min. In this assay system, the dissociation constant (KD) between the human plexin A1 protein and the anti-human plexin A1 antibody was calculated using data analysis software (BIA T200 Evaluation software ver. 2).

[13] = biological target: T4, human plexin A1 protein sema domain …; test: SPR, Biacore T200; antibody held by Protein A/G on CM4 chip, sema domain as analyte
Experimental: as §4, §5

B1: PF1 (antibody, human IgG1, kappa, V domains shown)
VH: QVQLQESGPGLVKPSETLSLTCAVSGYSISDDHAWSWVRQPPGEGLEWIGYISYSGITNYNPSLKGRVTISRDTSKNQFSLKLSSVTAADTAAYYCARVLARITAMDYWGEGTLVTVSS
VL: DIQMTQSPSSLSASVGDSVTITCQASQDISSYLNWYQQKPGKAPELLIYYGSELHSGVPSRFSGSGSGTDFTFTISSLEAEDAATYYCGQGNRLPYTFGQGTKVEIER
notes: also called PF1 antibody; anti-IL-6R antibody PF1 antibody
binding result [1]: no binding
binding result [2]: binds
binding result [3]: no binding

B2: mIANH-3_79 (antibody, human IgG1, kappa, V domains shown)
VH: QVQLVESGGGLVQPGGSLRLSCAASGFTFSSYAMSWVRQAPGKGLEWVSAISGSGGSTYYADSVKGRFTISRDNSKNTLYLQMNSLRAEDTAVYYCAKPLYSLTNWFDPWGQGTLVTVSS
VL: DIQMTQSPSSLSASVGDSVTITCQASQDISSYLNWYQQKPGKAPELLIYYGSELHSGVPSRFSGSGSGTDFTFTISSLEAEDAATYYCGQGNRLPYTFGQGTKVEIER
notes: IgG with the PF1 L chain
binding result [4]: no binding

B3: PANH-2_52 (antibody, human IgG1, kappa, V domains shown)
VH: EVQLVQSGGGVVQPGRSLRLSCAASGFTFSSYAMHWVRQAPGKGLEWVAVISYDGSNKYYADSVKGRFTISRDNSKNTLYLQMNSLRAEDTAVYYCARPPMEWLFWDAFDIWGQGTMVTVSS
VL: DIQMTQSPSSLSASVGDSVTITCQASQDISSYLNWYQQKPGKAPELLIYYGSELHSGVPSRFSGSGSGTDFTFTISSLEAEDAATYYCGQGNRLPYTFGQGTKVEIER
notes: IgG with the PF1 L chain
binding result [5]: binds
binding result [6]: no binding

B4: mIANH-2_27 (antibody, human IgG1, kappa, V domains shown)
VH: EVQLVQSGAEVKKPGASVKVSCKASGYTFTGYYIHWVRQAPGQGLEWMGRINPNSGGTNYAQKFQGRVTMTRDTSISTAYMQLSRLRSDDTAVYYCARDNSGWGGFDAFDIWGQGTMVTVSS
VL: DIQMTQSPSSLSASVGDSVTITCQASQDISSYLNWYQQKPGKAPELLIYYGSELHSGVPSRFSGSGSGTDFTFTISSLEAEDAATYYCGQGNRLPYTFGQGTKVEIER
notes: IgG with the PF1 L chain
binding result [7]: no binding

B5: PANH-3_10 (antibody, human IgG1, kappa, V domains shown)
VH: QVQLQESGPGLVKPSETLSLTCTVSGGSISSSSYYWGWIRQPPGKGLEWIGSIYYSGSTYYNPSLKSRVTISVDTSKNQFSLKLSSVTAADTAVYYCARDPVQLEHSRYYYYYGMDVWGQGTTVTVSS
VL: DIQMTQSPSSLSASVGDSVTITCQASQDISSYLNWYQQKPGKAPELLIYYGSELHSGVPSRFSGSGSGTDFTFTISSLEAEDAATYYCGQGNRLPYTFGQGTKVEIER
notes: IgG with the PF1 L chain
binding result [8]: binds
binding result [9]: no binding

B6: PANH-2_68 (antibody, human IgG1, kappa, V domains shown)
VH: QVQLVQSGAEVKKPGASVKVSCKASGYTFTSYGISWVRQAPGQGLEWMGWISAYNGNTNYAQKLQGRVTMTTDTSTSTAYMELRSLRSDDTAVYYCARAHTKDIWGQGTMVTVSS
VL: DIQMTQSPSSLSASVGDSVTITCQASQDISSYLNWYQQKPGKAPELLIYYGSELHSGVPSRFSGSGSGTDFTFTISSLEAEDAATYYCGQGNRLPYTFGQGTKVEIER
notes: IgG with the PF1 L chain
binding result [10]: no binding
binding result [11]: binds

B7: PLR2H342#009 (antibody, human IgG1, lambda, V domains shown)
VH: EVQLVQSGAEVKKPGASVKVSCKASGYTFTSYGISWVRQAPGQGLEWMGWISAYNGNTNYAQKLQGRVTMTTDTSTSTAYMELRSLRSDDTAVYYCARHAGYYYGMDVWGKGTMVTVSS
VL: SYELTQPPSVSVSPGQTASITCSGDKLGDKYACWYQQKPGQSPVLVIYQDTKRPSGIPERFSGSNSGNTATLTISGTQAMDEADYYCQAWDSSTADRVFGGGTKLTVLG
notes: IgG from the 342H-NL library
Relative KD improvement [12]: 19 fold
Kd [13]: 1.82 nM
